According to the supplement of paper PMC9170038:

Test system: K4 kissing-loop RNA reporter
Test: apparent KD of K4 kissing-loop reporter; higher = weaker reporter binding
Settings: Eterna round: R107
Description: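 RNA-MaP round R107: designed RNA switches with theophylline, tryptophan, arginine or FMN aptamers are transcribed on-chip within common flanks. They are titrated with a labelled K4 kissing-loop RNA reporter in RNA-MaP buffer (100 mM Tris pH 7.5, 80 mM KCl, 4 mM MgCl2), without ligand or with the indicated ligand. Median apparent KD per design.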

[1] = input ligand: theophylline 20 uM
[2] = input ligand: tryptophan 2.4 mM
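Note: bound reporter read as fluorescence of individual clusters on recovered sequencing chips by microscopy, with normalized cluster intensities fitted with a binding model.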

| Sequence | apparent KD of K4 kissing-loop reporter (input ligand: FMN 200 uM) [nM] | apparent KD of K4 kissing-loop reporter (input ligand: arginine 13.2 mM) [nM] | apparent KD of K4 kissing-loop reporter (input ligand: none) [nM] | apparent KD of K4 kissing-loop reporter [1] [nM] | apparent KD of K4 kissing-loop reporter [2] [nM] |
| --- | --- | --- | --- | --- | --- |
| CAGGUCACAGAGUGAUGUUCUGUGUCCGAAGGAGCGAUGGUCGCAUCAGGUAGGUCGCGGAUACAGUUGAAGUCCUAUCUAGACG [#10 K4 Arginine A Exclusion] | 143 | 111 | 119 | 123 | 134 |
| GCAUCCAUGGCAGGAUAUAGCUGAGUGAUGUUCAGGACCCAGUCAGUAUCCAUUACUACUGGACUUCUAGAAGGGCCAUGGAUGC | 231 | 192 | 288 | 288 | 246 |
| AUUUUUUUGUCAGGAUAUUAGUGUUGGUUUGGUUUGUUAGUGAUGUUGAUAUUUGUUUUAUGUAUUUAAGAAGGGAUUUAGAUGU [zaahullin] | 428 | 330 | 335 | 407 | 293 |
| UAUAUAGUGACGGCCGCCACUAUUGUGAUGUAGUUGUUAGAGUGAUGUUUUGUUGUUUGAUUUUGUAGGACCGGGUUAUAUGUUA [rccrwzmullin] | 842 | 565 | 812 | 612 | 668 |
| UUGACCUACUCAGGAUAUCCGCAGUGAUGUUGCGGUUGGCCUGAGCGACAUGAAAAUCUUACUACAGGAGAAGGGAGAGGGUUAC [Anraerce] | 106 | 79.8 | 134 | 88.5 | 96.9 |
| GCAUCCUCUGCAGGAUAUCGCGGAGUGAUGUUCCGCGCAUGCCAUAGCGAAAGCUAUGGCAUGCGACGAGAAGGGCAGAGGAUGC | 165 | 124 | 147 | 157 | 138 |
| GGGCGUGGCGCGGCCGCCACUGCGCCUGGGUGCUCGCUGAGUGAUGUUCGUCGGCGGUUGGGUGGUAGGACCGGGUGCUGGUCGG [BDazzled - #11 SS Tryptophan B] | 640 | 407 | 629 | 517 | 563 |
| GUAUGUGGAAACACGUACUUGUAUCCUAAGCAGGAUAUGCGGAAACGCAGAAGGGCUACCAACGAGUUUAUCCAGUGAUGUUGGA [Ex FMN A 13] | 507 | 298 | 332 | 393 | 455 |
| CCAUCGCUAUUCGAUACCAGCCAAGAGGUCUUUGGCCUCUUAUUGGAGUGAUGUUCCAUUGGCCCUUGGCAGCGAAUAGUGAUGG [Theophylline B K4 17] | 356 | 192 | 343 | 541 | 275 |
| GCAUCCGAUGCAGGAUAUAGAUGAACGAGUGAUGUUUGGAAUUUAUGUCCAAAGCCUACGAUCAGACUAGAAGGGCAUCGGAUGC | 147 | 75.4 | 122 | 197 | 164 |
| UAAUAGUAGACCAGGUCUACUAUUAGGGAUACCAGCCUCGGUCGAGGCCCUUGGCAGCCCAGCGGGUCCAGUGAUGUUGGAUGUC [Beoratri] | 400 | 284 | 371 | 207 | 342 |
| GCUGAUCGUUUUCCACGAUGCGGCUAAUAAAAGGAUAUUGGUAUAUCAAGAAGGUUUGUUCUGUGUAGUGAUGUUGCACCGUGUU [theeternabot_sameState_KL_FMN_A_28] | 77.5 | 101 | 80.5 | 111 | 72.5 |
| GGCAGAGCGCGAAGGAGCGCCCUGACAGGUUGCUGCCGUGGGCAGUGAUGUUGCUCAGUCCGGCAGGUAGGUCGCGUGCUCUGCC | 167 | 115 | 225 | 116 | 148 |
| AUAUACCAGUGAUGUUGGUAUACUAUCGAUACCAGUAGAUACCAAUACCCUUGGCAGCGAUAAGACCGUACUGUAGCCAGUACUU [Theo A SS t4] | 250 | 191 | 255 | 340 | 225 |
| AAUCUCCUAGUGAUGUUAGGUUUAAGGGAAGGAGCGAGGUAAUACUCAGGUAGGUCGCCCACAUGCAUUAAUAAAUCAAUUUAAU | 102 | 73.8 | 91 | 98.8 | 84.2 |
| CCAUCGCUAUUCGAUACCAGUCUUCGUAGGAAACUACGUCUGCAAAGGAGUGAUGUUCCAGACCCUUGGCAGCGAAUAGUGAUGG [Theophylline B K4 4] | 771 | 553 | 1110 | 444 | 799 |
| AAGCAGUCACUCGAAUCCAUCGAAGAUGGGCGAGGACCGGUACGGCCGCCACUCGGAGUGAUGUUCCGAAGACUGCAAAAUAAAA | 262 | 264 | 419 | 786 | 378 |

| Sequence | apparent KD of K4 kissing-loop reporter (input ligand: FMN 200 uM) [nM] | apparent KD of K4 kissing-loop reporter (input ligand: arginine 13.2 mM) [nM] | apparent KD of K4 kissing-loop reporter (input ligand: none) [nM] | apparent KD of K4 kissing-loop reporter [1] [nM] | apparent KD of K4 kissing-loop reporter [2] [nM] |
| --- | --- | --- | --- | --- | --- |
| AGGAUCCGUCGACAAAAGUCGACAUAAUCCAAGGAUAUGACGAAAGUCAGAAGGUGGGCAUAAGUCCAGUGAUGUUGGAGGAUCC [FmnA 18 #SwitchBubble #K4Late] | 575 | 360 | 587 | 523 | 445 |
| UUUUUUAAGAUGUCGACCAACCCGAAGCUACGAGGACCGGUACGGCCGCCACUCGCCAGUGAUGUUGGCGACUGGUGAAACCAUG [Ceesaror] | 133 | 97.8 | 110 | 103 | 227 |
| AAGGAUCAGAGAGUGAUGUUCUCUAAUAAACGAGGACCGGUACGGCCGCCACUCGAAUAAGAUCCAGUCCUACGAAAAGUAGGAC [Omei inspired 6] | 431 | 338 | 485 | 613 | 132 |
| AAUUUUAAUAAUAAAUAAUAAAUAAAUGAUACCAGUAUUUUUUUUUACCCUUGGCAGCGUAUAUAAGGGCAGUGAUGUUGUCAGA [whbob_SS_Theo_A_w59] | 223 | 144 | 212 | 232 | 164 |
| CUCAAGUGAGGAUUUCGACAUCAAGAUGUGAAGGAUAUGUUACCAAACAGAAGGUCACGAUGUCAUCUAUGAGUGAUGUUCAGGA [theeternabot_sameState_KL_FMN_A_31] | 208 | 130 | 208 | 186 | 181 |
| AAAUUUAAUAUAUUUAAAUAAAUAUGUGAUACCAGACAUUUAUAAGUCCCUUGGCAGCACAUUGCAGUGAUGUUGCUUAUAAUAA [JR_SSTheophyA_Sub016] | 72.7 | 80.9 | 89.7 | 145 | 76.5 |
| ACGUAGUUCUAGGAUACCAGCCAAAUAGCCAGGACGAGAGUCCUGGCUGCCAGUGAUGUUGGCCCUUGGCAGCCUAGAUCUUCUU [zmodel 1] | 161 | 136 | 144 | 218 | 149 |
| GGGUUCUCGUCGGCCGCCACUUCAUGUAUUUAGCAGGCUUCGCUCAGACUCAGUGAUGUUGGGUAAAGGACCGGGACACAUUCAA [theeternabot_exclusion_KL_Trp_B_50] | 372 | 245 | 342 | 304 | 310 |
| UGAUAAUGCAGUGAUGUUGCUAGAAACGAUACCAGUUAAGAAAAGAACCCUUGGCAGCGUAAAGUGCGCUCUAAUGAGUGUGCUU [#10 K4 Theophylline A Same State] | 164 | 195 | 194 | 212 | 132 |
| CCUGAAUCAGUGAGUGAUGUUCACGUCGAUACCAGCUAGGAUACUAGCCCUUGGCAGCGACAAUUGCCAAGUGUGGCUAGUCAAA [Theo B SS t8] | 140 | 134 | 160 | 148 | 147 |
| GUAUCGCUAGGAGGAUAUUCCAAUCCGCCUAUAAUAGGUGGUACGGAGUGAUGUUCCGAUUUACGGGAAGAAGGCCUAGUGAUAC [FMN B 17] | 155 | 318 | 302 | 381 | 346 |
| AGACUAUCGUCAAAGACGGUAGUCAAAAGUGAGGAUAUAAGUGAUGUUAGAAGGCACUAAGACUGUAUCGAAUAGAUACGGUCAA [FmnA 2 #K4BetweenAptamer #OpenEnded] | 1450 | 425 | 721 | 534 | 600 |
| ACACUUUACGUAGGAUAUGCGACGAGUGAUGUUCGUCAGGCGGCUUUAGAUUAAACAAGCCGCCUAGCAGAAGGACGGGCAGUGU [Zaorleon] | 126 | 147 | 188 | 178 | 144 |
| AAUAGCCGUACUAGUGAUGUUAGUGUGGAUACCAGUUCAUGGACGAACCCUUGGCAGCCAUCAAAUAUAUAUGAGGGAUCAUCAC [theeternabot_exclusion_KL_Theo_A_47] | 295 | 268 | 309 | 410 | 320 |
| GGAUAGGAUAGAGGAUAUGGAUUAGGCAAGAAUAACUUGUCAUGUAAAUCCAUGAGGAGUGAUGUUCCAGAAGGCUGUCCUAUCG [MatMod 7 - Jieux - Exclusion - FMN B] | 349 | 116 | 114 | 112 | 90.7 |
| GUUGGGUGGGUUAAAGAAUUUGUCUGACAACGAGGACCGGUACGGCCGCCACUCGAGUGAUGUUCGAGAAGAAAGAAAGAAAGAA | 66.4 | 123 | 95.4 | 146 | 126 |
